The nature of this data set: soluble on expression in E. coli; label from the status in PepcDB or PDB records.
For the sequence “MSLIPKIKDISVIECQPAGVRLTVVKITTDQDGLYGYGCATFTQRADLVKPAVERYLKPFLMGKTTDRIEDIWQSCYDSSYWKNGPVLNNAISGIDQALWDIKGRQAGLPVYQLAGGKCREAADCYAHADGADFPNVVEAAKRYMAQGFRHVRVQIGVPGMAGYGSSRGDTKVQALHSKPVFEPAYYVRRALKLFEVCRTELGEEIELLHDMHERVSPNQAVQFVKDAEKFKMFFMEDPLSPEDIAYFRQIRQQCATPIAMGELFNSPHEWTPLISERLIDYIRVHVSQAGGFTPARKIAILGETFGVKTAWHGPGDVSPIGHMANVTLDLVSYNFGIQEYSPFNGRTQEIFSGCPVMKDGYLYASEKPGWGIEVDEKLAAKAPFTDREGHHHHHH”, the “soluble on expression in E. coli” value is “not soluble”.

Consider “MAHHHHHHMGTLEAQTQGPGSMDEVLLVKKLVEDAIVPTRGSKCAAGIDLYSNTNFIIQPHERFLVSTGVSVQIPHQCYGRIAPRSSLALKYGIDVGAGVIDEDYRGEIKVILFNHSNEIFNGRKGDRIAQLIIERISYCRISEVKELNTTDRGTNGFGSTGK”, for which the “soluble on expression in E. coli” value is listed as “soluble”.

Regarding “MVAWSIVDYGSGDEVPGADAALVLGAAAWGNKPSPVFRERINHAVKLYQSGKVRWIVFTGGTPEPGYPAEADVGREFAARQGVPMTAMLVENQSRTTWQNLSNARDLGNQFGIRSYLLVSDPLHMRRAVLMAGDLGLRAYPAPTQSSRFRTLASWSRFLARETWLYVGYRVFRQLSLEHHHHHH”, the “soluble on expression in E. coli” value is listed as “not soluble”.

Turning to “MGSSHHHHHHSSGRENLYFQGHMAQLYFYYSAMNAGKSTALLQSSYNYQERGMRTVVYTAEIDDRFGAGKVSSRIGLSSPAKLFNQNSSLFDEIRAEHEQQAIHCVLVDECQFLTRQQVYELSEVVDQLDIPVLCYGLRTDFRGELFIGSQYLLAWSDKLVELKTICFCGRKASMVLRLDQAGRPYNEGEQVVIGGNERYVSVCRKHYKEALQVDSLTAIQERHRHD”, the “soluble on expression in E. coli” value is listed as “soluble”.

As for “MGSDKIHHHHHHMNDYLDDYEFNNLDFYRKNHGLQLYYNWSGEICWQETPDKPQEKLFSIIGMNATKVFLKPDPEHGEVGYRINRELGLFCDPDTQEILHSWKSPTASQPVPVVHIANRIVQGSVKPKKFVIPKGKGYITSVMEIPLEYPHPLAGDSKYLDYCPGEKFKGVEYFISNTCRPDATEVPPAKWARDCPWMPWMKLGYAHPAKLRFETTIFRVDSFEQLHPSLVNLVREKVPIYEFTPTESDEPNVTSIQYFKKNFESYLRGDIFPLEERY”, the “soluble on expression in E. coli” value is reported as “not soluble”.

With “MTVERIAEQPLDSELGHFNLITYRDSVEGDVHLALTLGKVCAEEPTLVRVHNMDPLRDLLQVNQPGRWSLRAAMTKVAEAGSGVVLLLGHQIGGDDLLAHVREIASAPAPAPKATTTYSTVGAGSQILRDLGVRKMRLLSAPMRFNAISGFDLEVVEYLPA”, the “soluble on expression in E. coli” value is “soluble”.

As to “MAHHHHHHMLNILSYSKLFSSCGRQAVTCPKGCNSYRHVSTGSDECLFTDGRASMGREFTLQPVEMEPVFKVHRPYSSSNCDNPISEDDLPYECGASSDCNTRSSTLRERAVCDEPLAKGLQNTTASTPYRVSWYERGAVSPSKRFVYWAFRRLWDLPPDAREYYRRMLYQEVRAARYVNQTWDCFMMVVDGYRKGKWILKKYGIKIDEGLIPKPYNNFWEETTHEERVWAHRRSHQMKDLQALQREDDNLVFGAHIMDRREVTYGSVKNLQTGMQGGTPVHAHDLPAPFEADVKMSLHEEDISSALMSSIEDDKLWNPVLRSRVHNKLARDEAELYGFEDEDDGDDRS”, the “soluble on expression in E. coli” value was “not soluble”.

“MTRVAINGFGRIGRMVFRQAIKESAFEIVAINASYPSETLAHLIKYDTVHGKFDGTVEAFEDHLLVDGKMIRLLNNRDPKELPWTDLGVEVVIEATGKFNSKEKAILHVEAGAKKVILTAPGKNEDVTIVVGVNEDQLDITKHTVISNASCTTNCLAPVVKVLDEQFGIENGLMTTVHAYTNDQKNIDNPHKDLRRARACGQSIIPTTTGAAKALAKVLPHLNGKLHGMALRVPTPNVSLVDLVVDVKRDVTVEAINDAFKTVANGALKGIVEFSEEPLVSIDFNTNTHSAIIDGLSTMVMGDRKVKVLAWYDNEWGYSRRVVDLVTLVVDELAKQENVQHI”: the “soluble on expression in E. coli” value is “soluble”.

With “MRQIETQQLEAETSFTERIAEDRVKCAAQRESLERQLQDLTATDNKLSEQKRDWEERQEKAYDELMSYLENEDVDSAGTQFGDHFNSLIKSMNNLSHDSMNGQFNSLKNNLDELNIEKKQLEVAIADQSSTISEMIPSLRPTCGATYKERNTLRIIFHYQVAKLRSEYQKCRLQEEALKARLST”, the “soluble on expression in E. coli” value is recorded as “not soluble”.

Consider “MSEKIRVLLYYKYVSIENAQEYAAKHLEFCKSIGLKGRILIADEGINGTVSGDYETTQKYMDWVHSDERFADLWFKIDEENQQAFRKMFVRYKKEIVHLGLEDNNFDSDINPLETTGEYLNPKQFKEALLDEDTVVLDTRNDYEYDLGHFRGAIRPDIRNFRELPQWVRDNKDKFMEKRVVVYCTGGVRCEKFSGWMVREGFKDVGQLHGGIATYGKDPEVQGELWDGAMYVFDDRISVPINHVNPTVISKDYFDGTPCERYVNCANPFCNKQIFASEENETKYVRGCSPECRAHERNRYVQENGLSRQEWAERLEAIGESLPEFVGALEHHHHHH”, for which the “soluble on expression in E. coli” value is given as “soluble”.

Turning to “MYDFVIIGGGIIGMSTAMQLIDVYPDARIALLEKESAPACHQTGHNSGVIHAGVYYTPGSLKAQFCLAGNRATKAFCDQNGIRYDNCGKMLVATSDLEMERMRALWERTAANGIEREWLNADELREREPNITGLGGIFVPSSGIVSYRDVTAAMAKIFQSRGGEIIYNAEVSGLNEHKNGVVIRTRQGGEYEASTLISCSGLMADRLVKMLGLEPGFIICPFRGEYFRLAPEHNQIVNHLIYPIPDPAMPFLGVHLTRMIDGSVTVGPNAVLAFKREGYRKRDFSFSDTLEILGSSGIRRVLQNHLRSGLGEMKNSLCKSGYLRLVQKYCPRLSLSDLQPWPAGVRAQAVSPDGKLIDDFLFVTTPRTIHTCNAPSPAATSAIPIGAHIVSKVQTLLASQSNPGRTLRAARSVDALHAAFNQ”, the “soluble on expression in E. coli” value was “not soluble”.

Consider “MSLSEKPCERVVLDTSVFTNPSVAAVFGDNATSALAQFVILARQVSPRMEFYMPPSVLGELHHFTDAEHLPGDLELVIKLRAPRRHDISVPGMFLYELIEDIRQRIDRGLRVAEKAVREVQPTSVDRTIRWLRDRYRDALRTGLLDSSEDLDVILLAVELDGAVASADRGLLQWAEKGGLRLIPPQRLRSILEHLIENGTAGEEGHHHHHH”, for which the “soluble on expression in E. coli” value is reported as “soluble”.

On to “MTSQPTSSLQGSCSICFEDLKQNDKISAIVCGHIYHHGCISQWIATKRQCPSCRRTVPKNGFVEKLFFDVQRMGGEAEKPPEIDYREEHYKLSTSLKVEQEKLGTLNTENKNLKDTVKSLEKKIIREKDKYRQEIPKLQATINHLTISSEETAYLKRELQESKNRLKTCEFYKILTVHSSEADKQLGEYLKKNGNLDTEKFFQLMKSTNKDLTDKRREAAKEIEQLKMEVQSLKRAAQEDAAIKKV”, for which the “soluble on expression in E. coli” value is given as “not soluble”.

For the sequence “MGSDKIHHHHHHMTDSKCYAAIDIGSNAVRLLIKKVKNNENLANKRLSKVMLLRVPLRLGFDVFSLGEVSDAKVMKLRRLMKAFRQLMKIYEVINYRACATSAMRDAQNGKSVIKKVWKDTGINIEVINGQEEARMIYNNHIECLEDRAGNYIYVDVGGGSTEINFLINGELVQSLSYNIGTVRMLSNSVREGSWEQMKSDLTRLTADFQGVNIIGSGGNINKLYRLADKKDKKQSRLPITSLQELYDKLKVLTLEQRMEEFNLKTDRADVIVPAAGIFLIIAGIVKAEYIHVPVIGLADGIIDNLYAIDLKTE”, the “soluble on expression in E. coli” value is on record as “not soluble”.

“METTFALLNFKESLCYIYPPTEPVRYVSSIVALNVHSPNGTGDWHSAKALSDRAYPEKFYIYGENQERNTNHLFGDNGIIDGTDRLNKMGYFPENIPVWLADHPRACVDYLYTAVLQTGSIGRVILDDWFPSDEDKQSVYDLLNQIEPHLNTQEWENLQLWKRKNPIM”: the “soluble on expression in E. coli” value was “not soluble”.

For “ENRLVVIVLRGAMDGLDLVRPVGDPLFATYRPRLAQDGQKGEGGVIPLSEGFVLHPLLNGLSALWRKGELGFVHAVSTPYRDKRSHFDGQDMLEAGTGPDVPPGVARDGWLNRMLQAVPGLEAETAWAIGRDPLPLMEGEAPVRVWSPDLALDLSAQNRRLLEELYHEDPLFRDVGTEALELAAKLSHGAGGEGPRDAKKDLAAIDELAAFAASQLRGAARIAAFSLSGWDTHRNQAAAIRKPLLKLQRMLLQLQAELGPVWDRTAILAMTEFGRTARENGSAGTDHGTAGAMIMAGGAIRGGRVLGRWPGLDEAALYDRRDLMPTSDVRAWAAWTMRSLYGFDRELLERSVFPGIEMREDPGLVL”, the “soluble on expression in E. coli” value is recorded as “not soluble”.

“MGSDKIHHHHHHMAKLETFYPIVATPKRAGYKEYLPSAVLTGYIRCFWEADDKNFPGNNLVVPDLCADIIFTIDSKTGLVTDAIFVGVSDAPFESDDESNTELFAVRFYAWSLFLFVEQDLTGSMNRVKEPEEMFAGFVSFFQERFAEMTTNMERIALLEEFLLRKLMMLGKQVHPDFLNGIDKLLQNPNQLALGAVSVRQLERLFQKHMGLAPKQTAKLIRFQKVLQALYENPSVPGAELAYLHGFTDQAHLIKQFKRYSNHTPEEMKQIFLQNVANIQ”: the “soluble on expression in E. coli” value is recorded as “not soluble”.

Turning to “MIEFNHVSKTFGDQQAVSDLNLHFSEGSFSVLIGTSGSGKSTTLKMINRLVEHDSGTIRFAGEEIRSLPVLELRRRMGYAIQSIGLFPHWTVAQNIATVPQLQKWSRARINDRIDELMALLGLESALRDRYPHQLSGGQQQRVGVARALAADPQVLLMDEPFGALDPVTRGALQQEMTRIHQLLGRTIVLVTHDIDEALRLADHLVLMDGGHVIQQGSPLSMLTSPENDFVQAFFGRSELGVRLLSLRSVGDYVRRHEQLSGDALVEEMTLRDALSMFVARRCDVLPVANQQGEPCGTLHFRDLLSETSPRETTV”, the “soluble on expression in E. coli” value is “not soluble”.

Take “MKQSKEEFIKSEGADFPGKTYVDCVLQHVFDFQRNYLLKDMFQVHKAHIVMLTEENLMKKEEAKFILHALKKVEEIPEEQLLYTEQHEDLFFLVEHLISQEAKSDFVSNMHIGRSRNDMGVTMYRMSLRRYVLRLMEHHLLLQESILQLAADHKETIMPAYTHTQPAQPTTFGHYTLAIYDTMQRDLERMKKTYKLLNQSPMGAAALSTTSFPIKRERVADLLGFTNVIENSYDAVAGADYLLEVSSLLMIMMTNTSRWIHDFLLLATKEYDGIAVARPYVQISSIMPQKRNPVSIEHARAITSSAPGEAFTVFQMIHNTPFGEIVDTEDDLQPYLYKGIEKAIRVFCILNAVIRTMKVEEDTLKRRSYKHAITITDFADVLTKNYGIPFRHAHHAASVIANMSLEQKKELHELCFKDVNIYLQEKFKIQLLEKEWEEIISPEAFIQKRNVYGGPSKKEMERMINNRKELFRKEEEVFEEEKQRILQAENDLNMLASNIIES”: the “soluble on expression in E. coli” value is “not soluble”.

As for “MAEPWGNELASAAARGDLEQLTSLLQNNVNVNAQNGFGRTALQVMKLGNPEIARRLLLRGANPDLKDRTGNAVIHDAARAGFLDTLQTLLEFQADVNIEDNEGNLPLHLAAKEGHLRVVEFLVKHTASNVGHRNHKGDTACDLARLYGRNEVVSLMQANGAGGATNLQ”, the “soluble on expression in E. coli” value is recorded as “soluble”.

As to “MLSSSEKVAGQGVSGAYRELVRLLHRAAKDQLIVTENLPIEADVTHFHTIDFPYYLSTFQKKRSGRKIGYVHFLPATLEGSLKIPFFLKGIVKRYVFSFYNRMEHLVVVNPMFIEDLVAAGIPREKVTYIPNFVNKEKWHPLPQEEVVRLRTDLGLSDNQFIVVGAGQVQKRKGIDDFIRLAEELPQITFIWAGGFSFGGMTDGYEHYKKIMENPPKNLIFPGIVSPERMRELYALADLFLLPSYNELFPMTILEAASCEAPIMLRDLDLYKVILEGNYRATAGREEMKEAILEYQANPAVLKDLKEKAKNISREYSEEHLLQIWLDFYEKQAALGRK”, the “soluble on expression in E. coli” value is listed as “not soluble”.

For the origin of these results see the DeepSol protein solubility set.
